The values that follow are results of earlier work, collected in publication PMC4237619.

Data set [1] addresses VEGF (Homo sapiens) (UniProt P15692).
Data set [2] has the same target. The source holds these as a separate data set.
Data set [3] shares this target. The source holds these as a separate data set.

Read-outs that look alike come from different tables or passages of the source.

UniProt P15692, sequence (P15692 whole entry): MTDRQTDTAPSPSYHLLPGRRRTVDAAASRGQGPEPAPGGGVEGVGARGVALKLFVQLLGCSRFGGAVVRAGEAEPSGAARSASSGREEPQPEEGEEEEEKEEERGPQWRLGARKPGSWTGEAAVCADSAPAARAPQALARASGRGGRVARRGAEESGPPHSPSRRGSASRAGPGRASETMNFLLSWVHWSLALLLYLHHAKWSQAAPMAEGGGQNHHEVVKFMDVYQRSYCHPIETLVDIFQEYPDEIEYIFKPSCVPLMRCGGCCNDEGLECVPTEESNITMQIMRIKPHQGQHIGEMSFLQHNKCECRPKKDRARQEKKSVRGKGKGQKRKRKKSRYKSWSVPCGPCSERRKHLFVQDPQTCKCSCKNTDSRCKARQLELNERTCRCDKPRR

As to NH2-GGGG-SY(SO3)DY(SO3)GGGG-OH peptide, the Kd (usually the equilibrium constant for the complex coming apart) with VEGF (Homo sapiens) [1] is 910 nM. Consider ATWLPPR peptide, for which the Kd with VEGF (Homo sapiens) [2] was 0.33 nM. Consider SY(SO3)DY(SO3)G peptide, for which the Kd with VEGF (Homo sapiens) [3] is 3100 nM.
